{
  "source": "paper doi:10.1101/2022.07.26.501514",
  "about": "“Structural plasticity of Atg18 oligomers: organization of assembled tubes and scaffolds at the isolation membrane” (bioRxiv, 2022)",
  "proteins": {"B1": {"name": "Atg18-PR72AA (Atg2 binding mutant) (natural protein, Saccharomyces cerevisiae, UniProt P43601 1-500, looked up)", "chain": "MSDSSPTINFINFNQTGTCISLGTSKGFKIFNCEPFGKFYSEDSGGYAIVEMLFSTSLLALVGIGDQPALSAARLRIINTKKHSIICEVTFPTSILSVKMNKSRLVVLLQEQIYIYDINTMRLLHTIETNPNPRGLMAMSPSVANSYLVYPSPPKVINSEIKAHATTNNITLSVGGNTETSFKRDQQDAGHSDISDLDQYSSFTKRDDADPTSSNGGNSSIIKNGDVIVFNLETLQPTMVIEAHKGEIAAMAISFDGTLMATASDKGTIIRVFDIETGDKIYQFRRGTYATRIYSISFSEDSQYLAVTGSSKTVHIFKLGHSMSNNKLDSDDSNMEEAAADDSSLDTTSIDALSDEENPTRLAREPYVDASRKTMGRMIRYSSQKLSRRAARTLGQIFPIKVTSLLESSRHFASLKLPVETNSHVMTISSIGSPIDIDTSEYPELFETGNSASTESYHEPVMKMVPIRVVSSDGYLYNFVMDPERGGDCLILSQYSILMD", "notes": "Atg18, Saccharomyces cerevisiae, Uniprot ID P43601, with P72 and R73 changed to alanines; also called Atg18-P72R73; Atg18-PR72R73; source: E. coli BL21(DE3), purified (Ni-NTA, TEV cleavage, second Ni-NTA, gel filtration Superdex 200); not shown: 6xHis, N-terminal, cleaved"}},
  "target": "the molecule itself",
  "test": "cryo-EM structure; helical tubes of Atg18, 20 uM in tube buffer (20 mM HEPES, 100 mM KAc, 1 mM DTT, pH 7.2); segmented helical reconstruction, rise 19.4 A, rotation 70.0 degrees",
  "data": [
    {"protein": "B1", "values": [
      {"measurement": "binding result", "value": "binds"}
    ]}
  ]
}
